Experimental data: US20240218057A1 (ROCKEFELLER UNIVERSITY, published 2024)

B1: C951 (antibody, V domains shown)
VH: QVQLQESGPRLVKPSGTLSLTCAVSGGSISTTNWWSWVRQPPGKGLEWIGEIHHSGNTNYNPSLKSRVTISVDRSKNQFSLKLSSVTAADTAVYFCARDGGRPGDPFDIWGQGTMVTVSS
VL: QSALTQPASVSGSPGQSITISCTGTSSDVGGYNYVSWYQQHPGKAPNLMIYDVSDRPSGVSNRFSGSKSGNTASLTISGLQAEDEADYYCNSFTSNSTRVFGTGTKVTV
B2: C945 (antibody, V domains shown)
VH: QVQLVQSGAEVKKPGASVRISCKASGYTFTNYYMHWVRQAPGQGLEWMGIINPSGGSTTYAPKFQARVTMTRDTSTSTVYMELSSLRSDDTAVYYCARDYVLVPARSGMDVWGQGTTVTVS
VL: EIVLTQSPATLSLSPGERATLSCRASQSVSSYLAWYQQKPGQAPRLLIYDASNRATGIPARFSGSGSGTDFTLTISSLEPEDFAIYYCQQRSNWPYTFGQGTKLEIK
B3: C1041 (antibody, V domains shown)
VH: QVQLVQSGAEVKKPGASVKVSCKASGYTFSDHYIYWVRQAPGQGLEWMGIINPSAGSTSYAQKFQGRVTMTRDTSTSTVYMELSSLRSEDTAVYYCARDIVFVPATMAMDVWGLGTTVTVSS
VL: EIVLTQSPATLSLSPGERATLSCRASQSVSRYLAWYQQKPGQAPRLLIYDASNRATGIPARFSGSGSGTDFTLTISSLEPEDFAVYYCQQRSNWLFTFGPGTKVDIK
B4: C1042 (antibody, V domains shown)
VH: QVQLVQSGAEVKKPGASVKVSCKASGYTFSDHYIYWVRQAPGQGLEWMGIINPSGGSTSYAQKFQGRVTMTRDTSTSTVYMELSSLKSEDTAVYYCSRDIVFVPATMAMDVWGQGTTVTVSS
VL: EIVLTQSPATLSLSPGERATLSCRASQSVSRYLAWYQQKPGQAPRLLIYDASNRATGIPARFSGSGSGTDFTLTISSLEPEDFAVYYCQQRSNWLFTFGPGTKVDIK
B5: C946 (antibody, V domains shown)
VH: QVQLVQSGAEVKKPGASVKVSCKASGYTFTNYYIHWVRQAPGQGLEWMGIINPDGDSTSYVQKFQGRVTMTRDTSTSTVYMELSSLRSEDTAVYYCARDLVFVPATSAMDVWGKGTTVTVSS
VL: EIVLTQSPATLSLSPGERATLSCRASQSVSSYLAWYQQKPGQAPRLLIYDASNRATGIPARFSGSGSGTDFTLTISSLEPEDFAVYYCQQRSNWLFTFGPGTKVDIK
B6: C948 (antibody, V domains shown)
VH: EVQLVESGGGLVQPGGSLRLSCAASGFTFSRYDMHWVRQATGKGLEWVSIIGTAGDTYYPGSVKGRFTISRDNAKNSLFLQMNSLRAGDTAVYYCARANYDSSGYHNWFDPWGQGTLVTVSS
VL: DIQMTQSPSSLSASIGDRVTITCRASQNINSYLNWYQQKPGKAPKLLIYAASSLQSGVPSRFSGSGSGTDFTLTINSLQPEDFATYYCQQSYSMPSWTFGQGTKVEI
B7: C947 (antibody, V domains shown)
VH: QVQLQESGPGLVRPSGTLSLTCAVTGGSISSSDCWSWVRQPPGKGLEWIGEICHGRTSNYNPSLKSPVSISVDKSKNQFSLILSSVTAADKAVYYCARSSRFLPPLPDAFDLWGQGTMVTVSS
VL: QSVLTQPPSVSGAPGQRVTISCTGSSSNIGAGYDVHWYKQLPGTAPKLLIYGNTNRPSGVPGRFSGSKSGTSASLAITGLQAEDEADYFCQSYDTRLSVVFGGGTKLT
B8: C944 (antibody, V domains shown)
VH: QVQLVESGGGVVQPGRSLRLSCAASGFTFSSYGMHWVRQAPGKGLEWVAVISYDGSYKYYADSVKGRFTISRDNSKNTLYLQMNSLRAEDTAVYYCAKGSGSQLYYYYGMDVWGQGTTVTVSS
VL: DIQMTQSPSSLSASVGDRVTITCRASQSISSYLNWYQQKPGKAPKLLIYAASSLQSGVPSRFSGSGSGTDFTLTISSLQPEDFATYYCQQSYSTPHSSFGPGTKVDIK
B9: C943 (antibody, V domains shown)
VH: QVQLVESGGGVVQPGRSLRLSCAASGFPFSSFGMHWVRQAPGRGLEWVALILYDGDNKYYADSVKGRFTISRDNSKNTLYLQMNSLRAEDTAVYYCAKDIGGGSSPPFFDYWGQGTLVTVSS
VL: SYELTQAPSVSLAPGKTARITCGENNIGSKSVHWYQQKPGQAPVLVIYYDSDRPSGIPERFSGSNSGNTATLTISRVEAGDEADYYCQVWDSSSDHVMFGGGTKLTVL
B10: C941 (antibody, V domains shown)
VH: QVQLVQSGAEVKKPGSSVKVSCKASGGTSRSYPISWVRQAPGQGLEWMGRIIPIVGTANYAQRFQGRVTITADESTGTAYMELSSLRSEDTAVYYCARNRGYSDYGSVYYFDYWGQGTLVTVSS
VL: QSVLTQPPSVSGAPGQRVTISCTGSSSNIGAGYDVHWYQQLPGAAPKLLIYRNINRPSGVPDRFSGSKSGTSASLAITGLQADDEADYYCQSYDSSLSGSVFGGGTKLTV
B11: C939 (antibody, V domains shown)
VH: QVQLVESGGGVVQPGRSLRLSCAASGFTFSSYAMHWVRQAPGKGLESVALISHDGSNKYHADSVKGRLTISRDTSKNTLYLQMDSLRPEDTAVYYCASGLLWFETAGGSGAPDYGMAVWGQGTTVTVSS
VL: DIQMTQSPSSLSASVGDRVTITCRASQSISTYLNWYQQKPGRAPKFLIYAASSLQSGVPSRFSGSGSGTDFTLIISGLQPEDFATYFCQQSYNTPLTFGGGTKVEIK
B12: C942 (antibody, V domains shown)
VH: QVQLVESGGGVVQPGRSLRLSCAASGFTFSSYVMHWVRQAPGKGLEWVAIISSDGNTKYYADSVKGRFTISRDNSKNTLYLQMNSVRTDDTAVYYCARDGTTMTPTDLLTDWGQGTLVTVSS
VL: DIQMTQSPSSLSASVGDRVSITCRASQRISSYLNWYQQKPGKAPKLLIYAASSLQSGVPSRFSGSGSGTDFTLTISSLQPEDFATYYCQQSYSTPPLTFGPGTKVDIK
B13: C1025 (antibody, V domains shown)
VH: EVQLVESGGGLVQPGRSLRLSCAASGFTFDDYAMHWVRQVPGKGLEWVSGVSWNGDSVGYADSMEGRFTISRDNAKNSLYLQMNSLRTEDTALYYCAKGVDYSSSSNFDFWGQGTLVTVSS
VL: DIQMTQSPSSVSASVGDRVTITCRASQGISSWLAWYQQKPGKAPKLLISLASSLQSGVPSRFSGSGSETDFTLIISSLQPEDFATYYCQQSSSFPLTFGGGTKVEIK
B14: C940 (antibody, V domains shown)
VH: QVQLQESGSGLVKPSQTLSLTCAVSGGSASSGGYSWSWIRQPPGKGLEWIGYIYHSGSTYYNPSLKSRVTISLDRTKKQFSLKLSSVTAADTAVYYCARFCLSGSHYLFAFDIWGPGTMVTVSS
VL: QSALTQPASVSGSPGQSITISCTATSSDVGGYNFVSWYQQYPGKVPKLLIYDVGNRPSGVSNRFSGSKSGNTASLTISGLQAEDEADYYCSSYTNSSTFFGGGTKLTVL
B15: C938 (antibody, V domains shown)
VH: QVQLVESGGGVVQPGRSLRLSCAASGFTFRSHAMHWVRQAPGKGLEWVAIISSDGFNKYYADSVKGRFTISRDNSKNTLYVHMNSLRVEDTAIYYCASGLLWFETREISGAPDYGMAVWGQGATVTVSS
VL: DIQMTQSPSSLSASVGDRVTITCRASQNISNFLNWYQQKPGKAPKLLIYAASSLQSGVPSRYSGSGSGTDFTLTISSLQAEDFATYYCQQSYSTPLTFGGGTKVEIK
B16: C949 (antibody, V domains shown)
VH: QVQLQESGPGLVKPLQTLSLTCTVSGGSISNGDYYWSWIRQSPGKGLEWIGNIFYSGATYFNPSLKSRVTLSVDTSKNQFSLKLSSVTAADTAVYYCARVVRVLPAASVDCWGQGTLVTVSS
VL: QSALTQPRSVSGSPGQSVPISCTGTSSDVGGYDYVSWYQQHPGKAPKLIIYDVSERPSGVPDRFSGSKSGNTASLTISGLQAEDEATYYCCSYAGTSVMFGGGTKLTVL

What follows are binders tested against T1, SARS-COV-2 RBD (SARS-COV-2, UniProt P0DTC2 319-539) (assay: ELISA, RBD coated on plate).
T1 construct: also called WT RBD

| Binder | EC50 |
| --- | --- |
| B1 | 0.81 ng/mL |
| B2 | 3.13 ng/mL |
| B3 | 3.65 ng/mL |
| B4 | 4.55 ng/mL |
| B5 | 3.82 ng/mL |
| B6 | 3.26 ng/mL |
| B7 | 2.08 ng/mL |
| B8 | 1.71 ng/mL |
| B9 | 2.59 ng/mL |
| B10 | 0.88 ng/mL |
| B11 | 3.62 ng/mL |
| B12 | 1.35 ng/mL |
| B13 | 2.51 ng/mL |
| B14 | 1.8 ng/mL |
| B15 | 2.63 ng/mL |
| B16 | 2.33 ng/mL |
